Assay in all cases: cell-based or functional assay
Assay [1] addresses HIV-1 Env of isolate AC10 (HIV-1).
The target of assay [2] is HIV-1 Env of isolate ZM214 (HIV-1).
Assay [3] has as its target HIV-1 Env of isolate THRO.18 (HIV-1).
Assay [4] addresses HIV-1 JR-FL Env E168K (pseudovirus) (HIV-1 JR-FL).
For assay [5], the target named is HIV-1 Env of isolate CAAN (HIV-1).
Assay [6] addresses HIV-1 CMU02 Env (clade AE pseudovirus) (HIV-1).
Assay [7] deals with HIV-1 93UG077 Env (clade A pseudovirus) (HIV-1).
Assay [8] deals with HIV-1 92RW020 Env (clade A pseudovirus) (HIV-1).
In assay [9] the target is HIV-1 MGRM-D-018 Env (clade D pseudovirus) (HIV-1).
Assay [10] has as its target HIV-1 94UG103 Env (clade A pseudovirus) (HIV-1).
Assay [11] addresses HIV-1 92UG005 Env (clade D pseudovirus) (HIV-1).
Assay [12] deals with HIV-1 MGRM-C-026 Env (clade C pseudovirus) (HIV-1).
Assay [13] addresses HIV-1 NL43 Env (clade B pseudovirus) (HIV-1).
For assay [14], the target named is HIV-1 Env of isolate MGRM-C-026 (clade C) (HIV-1).
Assay [15] has as its target HIV-1 Env of isolate MGRM-C-028 (clade C) (HIV-1).
In assay [16] the target is HIV-1 Env of isolate JRFL (clade B) (HIV-1).
For assay [17], the target named is HIV-1 Env of isolate 92RW020 (clade A) (HIV-1).
Assay [18] deals with HIV-1 Env of isolate 92TH021 (clade AE) (HIV-1).
The target of assay [19] is HIV-1 JR-CSF Env I423A (HIV-1 (isolate JR-CSF)) (UniProt P20871).
The target in assay [20] is HIV-1 envelope glycoprotein (Env) of isolate MGRM-Chronic-B-003, on pseudovirus (HIV-1).
In assay [21] the target is HIV-1 envelope glycoprotein (Env) of isolate 92BR020, on pseudovirus (HIV-1).
Assay [22] addresses HIV-1 Env of isolate MGRM-F1-022 (clade F), on pseudovirus (HIV-1).
Assay [23] deals with HIV-1 Env of isolate 92UG005 (subtype D), on pseudovirus (HIV-1).
In assay [24] the target is HIV-1 Env of isolate MG RM-A-009 (pseudovirus) (HIV-1).
For assay [25], the target named is HIV-1 Env of isolate 98CN009 (subtype CRF07_BC), on pseudovirus (HIV-1).
In assay [26] the target is HIV-1 Env of isolate CMU02 (pseudovirus) (HIV-1).
Assay [27] concerns the target HIV-1 Env of isolate MGRM-AE-006 (pseudovirus) (HIV-1).
Assay [28] concerns the target HIV-1 Env of isolate MGRM-D-003 (subtype D), on pseudovirus (HIV-1).
The target in assay [29] is HIV-1 Env of isolate VLGCA1 (pseudovirus) (HIV-1).
Assay [30] addresses HIV-1 Env of isolate MGRM-AE-001 (pseudovirus) (HIV-1).
For assay [31], the target named is HIV-1 Env of isolate MG RM-A-012 (pseudovirus) (HIV-1).
The target in assay [32] is HIV-1 Env of isolate 93UG077 (pseudovirus) (HIV-1).
Assay [33] deals with HIV-1 Env of isolate MG RM-A-013 (pseudovirus) (HIV-1).
For assay [34], the target named is HIV-1 Env of isolate APV_6 (HIV-1).
In assay [35] the target is HIV-1 Env of isolate MG RM-A-010 (pseudovirus) (HIV-1).
For assay [36], the target named is HIV-1 Env of isolate MG RM-A-008 (pseudovirus) (HIV-1).
Assay [37] addresses HIV-1 Env of isolate MGRM-D-005 (subtype D), on pseudovirus (HIV-1).

1443_C16 (PG16) (TCN-116) (antibody), sequence (VH): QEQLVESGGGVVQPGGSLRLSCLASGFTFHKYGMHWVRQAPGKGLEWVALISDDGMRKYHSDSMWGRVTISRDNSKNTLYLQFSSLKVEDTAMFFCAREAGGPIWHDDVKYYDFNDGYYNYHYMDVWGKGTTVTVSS
1443_C16 (PG16) (TCN-116) (antibody), sequence (VL): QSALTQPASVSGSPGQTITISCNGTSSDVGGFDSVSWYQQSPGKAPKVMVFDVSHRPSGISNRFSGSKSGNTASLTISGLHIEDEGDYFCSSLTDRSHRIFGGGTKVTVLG

Take 1443_C16 (PG16) (TCN-116) (antibody): the IC50, pseudovirus neutralization (TZM-bl) in [1] was less than 0.01 µg/mL; in assay [2], greater than 25 µg/mL; in assay [3], 2.19 µg/mL; in assay [5] it was 6.37 µg/mL. The substance also yielded an IC50 (ug/ml), neutralization in assay [4] of 0.006 µg/mL.

On to 4877_D15 (PGT-122) (antibody), for which the Neutralization by PGT-122, IC50 was greater than 10 µg/mL in assay [6]; 0.191 µg/mL in assay [7]; 0.0072 µg/mL in assay [8]; 0.0115 µg/mL in assay [9]; 1.46 µg/mL in assay [10]; greater than 10 µg/mL in assay [11]. In addition, the Neutralization by PGT-122, IC50 in assay [12] was 0.0089 µg/mL; in assay [13], greater than 10 µg/mL. Further, the Neutralization by PGT-122, IC80 in assay [6] is greater than 10 µg/mL; in assay [7], 0.931 µg/mL; in assay [8] it was 0.0407 µg/mL; in assay [9] it was 0.035 µg/mL; in assay [10], 6.58 µg/mL; in assay [11] it was greater than 10 µg/mL. For the same substance, the figures for the Neutralization by PGT-122, IC80 in assay [12] and in assay [13] were 0.037 µg/mL and greater than 10 µg/mL, respectively. The Neutralization by PGT-122, IC90 is greater than 10 µg/mL in [6]; 2.1 µg/mL in assay [7]; 0.113 µg/mL in [8]; 0.0674 µg/mL in [9]; greater than 10 µg/mL in assay [10]; greater than 10 µg/mL in assay [11]. The Neutralization by PGT-122, IC90 in assay [12] is 0.0849 µg/mL; in [13] it was greater than 10 µg/mL. Moreover, the Neutralization by PGT-122, IC95 in assay [6] is greater than 10 µg/mL; in assay [7] it was 3.88 µg/mL; in [8], 0.289 µg/mL; in assay [9] it was 0.125 µg/mL; in assay [10] it was greater than 10 µg/mL; in assay [11] it was greater than 10 µg/mL. The Neutralization by PGT-122, IC95 was 0.181 µg/mL in assay [12] and greater than 10 µg/mL in assay [13].

In the case of 5147_N06 (PGT-130) (antibody), the neutralization IC50 in [14] is 0.0173 µg/mL; in [15] it was greater than 10 µg/mL; in assay [16], 0.0346 µg/mL; in [17], 0.014 µg/mL; in [18], 0.0082 µg/mL. Further, the neutralization IC80 in [14] is 0.263 µg/mL; in assay [15], greater than 10 µg/mL; in [16], 0.751 µg/mL; in [17], 0.508 µg/mL; in assay [18], 0.0261 µg/mL. Also, the neutralization IC90 is 1.32 µg/mL in assay [14]; greater than 10 µg/mL in assay [15]; 5.72 µg/mL in assay [16]; 3.68 µg/mL in [17]; 0.0513 µg/mL in assay [18]. Also, the neutralization IC95 in [14] is 6.13 µg/mL; in [15], greater than 10 µg/mL; in [16], greater than 10 µg/mL; in assay [17] it was greater than 10 µg/mL; in assay [18], 0.0963 µg/mL.

The substance PGT-121 (antibody) had a Fold IC50 increase relative to wild-type in assay [19] of 3.3 fold.

With PGV04 (antibody), the IC50, pseudovirus neutralization worked out at 0.258 µg/mL in [20] and 0.25 µg/mL in assay [21]. Further, in assay [22], the IC50 (µg/mL), single-round pseudovirus neutralization was found to be 0.072 µg/mL.

As usually defined, the IC50 is the concentration needed to halve the response being measured. A lower IC50 goes with greater potency in that assay. VRC01 (antibody): the IC50, pseudovirus neutralization in [23] was 0.576 µg/mL; in assay [25] it was 0.346 µg/mL; in assay [28] it was 2.06 µg/mL; in [37], greater than 50 µg/mL. For the same substance, the IC50 (µg/mL), pseudovirus neutralization in assay [24] is 0.118 µg/mL; in [26] it was 0.515 µg/mL; in assay [27] it was 4.65 µg/mL; in assay [29], 0.163 µg/mL; in assay [30] it was 0.167 µg/mL; in assay [31], greater than 50 µg/mL. For the same substance, the IC50 (µg/mL), pseudovirus neutralization was found to be 0.097 µg/mL in assay [32], 0.152 µg/mL in [33], 0.325 µg/mL in assay [35] and 0.303 µg/mL in [36]. This substance displayed an IC50 in assay [34] of 1.81 µg/mL.

Values taken from patent publication US20200024330A1.
